Source: US20260274993A1 (HUMMINGBIRD BIOSCIENCE PTE, published 2026)
Like-named read-outs stand apart in the source and are kept apart here.

Key:
Tabalumab mutant FR1 [1] = biological target: T1, Tabalumab mutant FR1; experiment: flow cytometry, % parent (FITC), CHO cells expressing tabalumab mutant FR1
T1 construct: also called Taba FR1
Method: (§1) FACS was performed according to standard protocols. Briefly, cells were assayed in PBS with 0.5% BSA and 2 mM EDTA. […] Following this, cells were incubated with a secondary anti-mouse FITC antibody for 30 mins at 4° C. FITC readout was measured by FACS on a benchtop flow cytometer.

zanolimumab [2] = biological target: T2, zanolimumab; experiment: flow cytometry, EC50 of % parent (FITC), CHO cells overexpressing surface zanolimumab (ZANO)
T2 construct: VH4-34-containing antibody used as the antigen, overexpressed on the surface of CHO cells; also called Zano.hIgG1
Method: as §1

[3] = biological target: T3, antibodies containing VH4-34 endogenously expressed by cell line OCI-Ly3; experiment: flow cytometry, EC50 of % parent (PE), OCI-Ly3 cells endogenously expressing VH4-34
T3 construct: Whole, on cells; also called VH4-34-expressing cell line OCI-Ly3
Method: (§2) FACS was performed according to standard protocols. Briefly, cells were assayed in PBS with 0.5% BSA and 2 mM EDTA. Live dead staining was performed with a live dead cell dye for 15 minutes at 4° C. […] Following this, cells were incubated with a secondary PE goat anti-mouse IgG for 30 mins at 4° C. and PE readout was measured.

Zanolimumab mutant FR1 [4] = biological target: T4, Zanolimumab mutant FR1; experiment: flow cytometry, % parent (FITC), CHO cells expressing zanolimumab mutant FR1
T4 construct: also called Zano FR1
Method: as §1

tabalumab [5] = experiment: flow cytometry, EC50 of % parent (FITC), CHO cells overexpressing surface tabalumab (TABA)
Method: as §1

3A6 mutant FR1 [6] = biological target: T5, 3A6 mutant FR1; experiment: flow cytometry, % parent (FITC), CHO cells expressing 3A6 mutant FR1
T5 construct: also called 3A6 FR1; 3A6-FR1 (VH4-34 FR1 mutant)
Method: as §1

3A6 [7] = biological target: T6, 3A6; experiment: flow cytometry, EC50 of % parent (FITC), CHO cells overexpressing surface 3A6
T6 construct: also called 3A6 antibody (containing VH4-34 antigen); 3A6 (VH4-34 antigen)
Method: as §1

tabalumab [8] = experiment: flow cytometry, EC50 of % parent (FITC), CHO cells overexpressing surface tabalumab (Taba)
Method: (§3) For FACS evaluation, cells were assayed in PBS with 0.5% BSA and 2 mM EDTA. […] Cells were incubated with a secondary anti-mouse FITC antibody for 20 mins at 4° C. FITC readout was measured by FACS.

3A6 [9] = biological target: T6, 3A6; experiment: flow cytometry, EC50 of % parent (FITC), CHO cells overexpressing surface 3A6; remark: listed apart in the source
Method: as §3

3A6 mutant FR1 [10] = biological target: T5, 3A6 mutant FR1; experiment: flow cytometry, % parent (FITC), CHO cells expressing 3A6 mutant FR1; remark: listed apart in the source
Method: as §3

zanolimumab [11] = biological target: T2, zanolimumab; experiment: flow cytometry, EC50 of % parent (FITC), CHO cells overexpressing surface zanolimumab (Zano)
Method: as §3

Tabalumab mutant FR1 [12] = biological target: T1, Tabalumab mutant FR1; experiment: flow cytometry, % parent (FITC), CHO cells expressing tabalumab mutant FR1; remark: listed apart in the source
Method: as §3

Zanolimumab mutant FR1 [13] = biological target: T4, Zanolimumab mutant FR1; experiment: flow cytometry, % parent (FITC), CHO cells expressing zanolimumab mutant FR1; remark: listed apart in the source
Method: as §3

IGM-55.5 = biological target: T7, IGM-55.5; experiment: ELISA on plate-coated IGM-55.5 (1 ug/ml), detection with HRP goat anti-mouse IgG
T7 construct: Cold agglutinin antibody coated on the plate in the ELISA
Method: Plate was washed 3× with TBS+0.1% Tween 20. […] A secondary antibody (HRP-conjugated goat anti-mouse IgG) was prepared at 1:5000 dilution in blocking buffer and added to the plate with 1 hr incubation RT. TMB ELISA substrate was added and incubated for 15 mins at RT in the dark, before adding the stop solution. The absorbance was read at 450 nm.

3A6 [14] = biological target: T6, 3A6; experiment: ELISA, human IgG1 antigen captured on anti-human IgG Fc;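 also: humanized antibodies bound to human IgG1 antigen captured at 1 µg/ml on anti-human IgG Fc plates, detected with anti-mouse IgG Fc/HRP, VSTB112 serving as negative control protein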
Method: The binding affinity of each humanized antibody for 3A6 antibody (containing VH4-34 antigen), 3A6-FR1 (VH4-34 FR1 mutant) and VSTB112 (negative control protein) was evaluated.
Plates were coated with 1 ug/ml of anti-human IgG Fc overnight at 4° C. Plates were washed thrice with PBS/0.05% Tween (PBST) before blocking with 5% BSA for 1 h at room temp (RT). Plates were then washed again before addition of 1 μg/ml of 3A6 (VH4-34 antigen), 3A6-FR1 (VH4-34 FR1 mutant) or VSTB112 (negative control protein) human IgG1 proteins. Plates were washed thrice. […] After washing the plates, anti-mouse IgG Fc/HRP diluted 1:5000 in 1% BSA was added and incubated for 1 h at RT. Plates were washed before detection using 1-step ELISA substrate.

[15] = biological target: T3, antibodies containing VH4-34 …; experiment: flow cytometry, EC50 of MFI, OCI-Ly3 cells endogenously expressing VH4-34
Method: (§4) Binding was assessed by FACS. Briefly, cells were assayed in PBS with 0.5% BSA and 2 mM EDTA. Live dead staining was performed with a live dead cell dye for 15 minutes at 4° C. […] Following this, cells were incubated with a secondary PE goat anti-mouse IgG (1:300) for 30 mins at 4° C. and PE readout was measured.

zanolimumab [16] = biological target: T2, zanolimumab; experiment: flow cytometry (geomean MFI), CHO cells overexpressing the surface antibody
tabalumab [17] = experiment: as above
3A6 [18] = biological target: T6, 3A6; experiment: as above
[19] = biological target: T3, antibodies containing VH4-34 …; experiment: flow cytometry, EC50 of % parent, OCI-Ly3 cells endogenously expressing VH4-34
Method: as §4

Zanolimumab mutant FR1 [20] = biological target: T4, Zanolimumab mutant FR1; experiment: flow cytometry, % parent (FITC), CHO cells expressing zanolimumab mutant FR1; remark: listed apart in the source
Method: as §1

zanolimumab [21] = biological target: T2, zanolimumab; experiment: flow cytometry, EC50 of % parent (FITC), CHO cells overexpressing surface zanolimumab (Zano); curve in FIG. 1A reaches only about 45 % parent
Method: as §1

tabalumab [22] = experiment: flow cytometry, EC50 of % parent (FITC), CHO cells overexpressing surface tabalumab (Taba); remark: listed apart in the source
Method: as §1

3A6 [23] = biological target: T6, 3A6; experiment: flow cytometry, EC50 of % parent (FITC), CHO cells overexpressing surface 3A6; remark: listed apart in the source
Method: as §1

tabalumab [24] = experiment: cell-based or functional assay
[25] = biological target: T3, antibodies containing VH4-34 …; experiment: cell-based or functional assay
zanolimumab [26] = biological target: T2, zanolimumab; experiment: cell-based or functional assay
[27] = biological target: T3, antibodies containing VH4-34 …; experiment: flow cytometry, EC50 of % parent (PE), OCI-Ly3 cells endogenously expressing VH4-34; curve in FIG. 4A reaches only about 40 % parent
Method: as §2

Tabalumab mutant FR1 [28] = biological target: T1, Tabalumab mutant FR1; experiment: flow cytometry, EC50 of % parent (FITC), CHO cells expressing tabalumab mutant FR1 (TABA FR1); curve in FIG. 2A levels at only about 15 % parent
Method: as §1

3A6 mutant FR1 [29] = biological target: T5, 3A6 mutant FR1; experiment: flow cytometry, EC50 of % parent (FITC), CHO cells expressing 3A6 mutant FR1 (3A6 FR1); curve in FIG. 2A reaches about 95 % parent
Method: as §1

Zanolimumab mutant FR1 [30] = biological target: T4, Zanolimumab mutant FR1; experiment: flow cytometry, EC50 of % parent (FITC), CHO cells expressing zanolimumab mutant FR1 (ZANO FR1); curve in FIG. 2A reaches about 95 % parent
Method: as §1

T2 sequence (VH, as listed by the source, chain 1 of 2): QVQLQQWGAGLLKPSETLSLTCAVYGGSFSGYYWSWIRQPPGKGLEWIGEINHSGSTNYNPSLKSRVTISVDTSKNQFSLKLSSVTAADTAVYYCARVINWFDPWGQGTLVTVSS
T2 sequence (VL, as listed by the source, chain 2 of 2): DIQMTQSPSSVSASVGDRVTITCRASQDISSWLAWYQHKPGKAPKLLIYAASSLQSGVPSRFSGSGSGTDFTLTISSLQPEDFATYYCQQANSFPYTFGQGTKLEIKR
Chain of tabalumab (VH, as listed by the source, chain 1 of 2): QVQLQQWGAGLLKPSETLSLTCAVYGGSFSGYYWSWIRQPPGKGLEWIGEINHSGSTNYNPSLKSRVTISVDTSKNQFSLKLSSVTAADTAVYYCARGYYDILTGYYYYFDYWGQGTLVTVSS
Chain of tabalumab (VL, as listed by the source, chain 2 of 2): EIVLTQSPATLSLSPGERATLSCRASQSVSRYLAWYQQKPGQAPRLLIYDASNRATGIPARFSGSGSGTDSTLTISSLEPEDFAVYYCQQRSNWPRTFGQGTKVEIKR
T1 sequence (VH, as listed by the source, chain 1 of 2): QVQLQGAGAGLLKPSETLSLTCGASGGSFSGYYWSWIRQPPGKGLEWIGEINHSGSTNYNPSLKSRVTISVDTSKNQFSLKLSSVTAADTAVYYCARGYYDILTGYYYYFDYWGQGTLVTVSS
T6 sequence (VH, as listed by the source, chain 1 of 2): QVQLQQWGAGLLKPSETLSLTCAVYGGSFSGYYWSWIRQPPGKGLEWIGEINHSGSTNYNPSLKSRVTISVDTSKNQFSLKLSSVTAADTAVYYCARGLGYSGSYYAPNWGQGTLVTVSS
T6 sequence (VL, as listed by the source, chain 2 of 2): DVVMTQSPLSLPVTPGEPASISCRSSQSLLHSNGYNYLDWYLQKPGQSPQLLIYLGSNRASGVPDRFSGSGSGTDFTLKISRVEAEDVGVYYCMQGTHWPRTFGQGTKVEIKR
T4 sequence (VH, as listed by the source, chain 1 of 2): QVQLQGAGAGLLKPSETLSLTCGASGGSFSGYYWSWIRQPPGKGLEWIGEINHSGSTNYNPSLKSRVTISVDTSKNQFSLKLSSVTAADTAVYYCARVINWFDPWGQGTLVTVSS
T5 sequence (VH, as listed by the source, chain 1 of 2): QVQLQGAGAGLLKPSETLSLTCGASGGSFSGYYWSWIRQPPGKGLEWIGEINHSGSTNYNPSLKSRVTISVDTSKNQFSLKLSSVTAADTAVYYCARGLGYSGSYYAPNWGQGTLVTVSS

B1: D011-6039.IgG2a (antibody, V domains shown)
VH: EVMLVESGGGLVQPGGSLKLSCAASGFTFSSYGMSWVRQTPDKRLELVATINSNGVNTYYPDSVKGRFTISRDNAKNTLYLQMSSLKSEDTAMYYCARVPFDYWGQGTSLTVSS
VL: DIVMTQSPAIMSASLGEKVTMSCRASSSVDYIYWYQQKSDASPKLWIYYTSTLAPGVPARFSGSGSGNSYSLTISSMEGEDAATYYCQQFTSSPWTFGGGTRLEIKR
B1 was tested, and the binding result (Tabalumab mutant FR1 [1]) was “no binding (tested: Log M about -7.2 (about 7e-8 M))”, the EC50 (zanolimumab [2]) was 10.4 nM and the EC50 [3] was 0.273 nM. The binding result (Zanolimumab mutant FR1 [4]) was “no binding (tested: Log M about -7.2 (about 7e-8 M))”, the EC50 (tabalumab [5]) was 0.0444 nM and the binding result (3A6 mutant FR1 [6]) was “no binding (tested: Log M about -7.2 (about 7e-8 M))”. For the same binder, the EC50 (3A6 [7]) was 8.96 nM.

B2: D011-7016-LD1.IgG2a (antibody, V domains shown)
VH: EVQLVESGPSLVKPSQTLSLICSVTGDAITSGYWNWVRKFPGNKLEYMGYISYSGSAHYNPSLKSRISITRDTSKNQYYLQLNSMTTEDTATYYCASYSFAYWGQGTLVTVSA
VL: DIVMTQSPATLSVTPGDSVSLSCRAQQSIDNQLHWYQQRSHESPRLLINYASQSISGIPSRFSGSGSGTDFTLSISSVETEDFGMYFCQQSYGWPYTFGGGTKLEIKR
With B2 the EC50 (tabalumab [8]) was 0.00863 nM, the EC50 (3A6 [9]) was 0.0104 nM and the binding result (3A6 mutant FR1 [10]) was “no binding (tested: Log M about -8.1 (about 8e-9 M))”. For the same binder, the EC50 (zanolimumab [11]) was 0.0105 nM, the binding result (Tabalumab mutant FR1 [12]) was “no binding (tested: Log M about -8.1 (about 8e-9 M))” and the binding result (Zanolimumab mutant FR1 [13]) was “no binding (tested: Log M about -8.1 (about 8e-9 M))”.

B3: D011-7016.IgG2a (antibody)
heavy: EVQLVESGPSLVKPSQTLSLICSVTGDSITSGYWNWVRKFPGNKLEYMGYISYSGSAHYNPSLKSRISITRDTSKNQYYLQLNSMTTEDTATYYCASYSFAYWGQGTLVTVSAASTKGPSVFPLAPSSKSTSGGTAALGCLVKDYFPEPVTVSWNSGALTSGVHTFPAVLQSSGLYSLSSVVTVPSSSLGTQTYICNVNHKPSNTKVDKKVEPKSCDKTHTCPPCPAPELLGGPSVFIFPPKIKDVLMISLSPIVTCVVVDVSEDDPDVQISWFVNNVEVHTAQTQTHREDYNSTLRVVSALPIQHQDWMSGKEFKCKVNNKDLPAPIERTISKPKGSVRAPQVYVLPPPEEEMTKKQVTLTCMVTDFMPEDIYVEWTNNGKTELNYKNTEPVLDSDGSYFMYSKLRVEKKNWVERNSYSCSVVHEGLHNHHTTKSFSRTPGK
light: DIVMTQSPATLSVTPGDSVSLSCRANQSIDNNLHWYQQRSHESPRLLINYASQSISGIPSRFSGSGSGTDFTLSISSVETEDFGMYFCQQSYGWPYTFGGGTKLEIKRTVAAPSVFIFPPSDEQLKSGTASVVCLLNNFYPREAKVQWKVDNALQSGNSQESVTEQDSKDSTYSLSSTLTLSKADYEKHKVYACEVTHQGLSSPVTKSFNRGEC
notes: also called [4]
B3 was tested, and the EC50 (tabalumab [8]) was 0.00558 nM, the EC50 (3A6 [9]) was 0.00751 nM and the EC50 (zanolimumab [2]) was 0.0164 nM. The EC50 [3] was 0.0194 nM, the EC50 (tabalumab [5]) was 0.0313 nM and the “EC50 (read off the curve)” value (IGM-55.5) was ~0.0002 nM. The binding result (3A6 mutant FR1 [6]) was “no binding (tested: Log M about -7.2 (about 7e-8 M))”, the EC50 (3A6 [7]) was 0.0258 nM and the EC50 (zanolimumab [11]) was 0.00926 nM. B3: no binding (tested: Log M about -8.1 (about 8e-9 M)) (Tabalumab mutant FR1 [12]); no binding (tested: Log M about -8.1 (about 8e-9 M)) (Zanolimumab mutant FR1 [13]).

B4: D011-7016-LD2.IgG2a (antibody, V domains shown)
VH: EVQLVESGPSLVKPSQTLSLICSVTGDAITSGYWNWVRKFPGNKLEYMGYISYSGSAHYNPSLKSRISITRDTSKNQYYLQLNSMTTEDTATYYCASYSFAYWGQGTLVTVSA
VL: DIVMTQSPATLSVTPGDSVSLSCRASQSIDNQLHWYQQRSHESPRLLINYASQSISGIPSRFSGSGSGTDFTLSISSVETEDFGMYFCQQSYGWPYTFGGGTKLEIKR
notes: also called [8]
Work on B4 yielded an EC50 (tabalumab [8]) of 0.00688 nM, an EC50 (3A6 [14]) of 0.0254 nM and an EC50 (3A6 [9]) of 0.00909 nM. For the same binder, the EC50 [15] was 0.243 nM, the binding result (3A6 mutant FR1 [10]) was “no binding (tested: Log M about -8.1 (about 8e-9 M))” and the EC50 (zanolimumab [16]) was 0.692 nM. The EC50 (tabalumab [17]) was 0.28 nM, the EC50 (3A6 [18]) was 0.519 nM and the EC50 [19] was 0.00477 nM. For the same binder, the EC50 (zanolimumab [11]) was 0.00892 nM, the binding result (Tabalumab mutant FR1 [12]) was “no binding (tested: Log M about -8.1 (about 8e-9 M))” and the binding result (Zanolimumab mutant FR1 [13]) was “no binding (tested: Log M about -8.1 (about 8e-9 M))”.

B5: D011-1E11p.IgG2a (antibody, V domains shown)
VH: EVQLQQSGPELVKPGASMKISCKASGYSFTGSTMNWVKQSPGKNLEWIGLINPYNGGTSYNQKFEGKATLTVDKSSSTAYMELLSLTSVDSAVYYCASRGKNGYDGRDFDCWGQGTSVTVSS
VL: DIVLTQSPLSLPVNIGDQASISCKSTKSLLNSGGFTYLDWYLQKPGQSPQLLIYLVSNRFSGVPDRFSGSGSGTDFTLKISRVEAEDLGVYYCFQSNYFPFTFGSGTKLEIKR
B5 was tested, and the binding result (Zanolimumab mutant FR1 [20]) was “no binding (tested: Log M about -7.2 (about 7e-8 M))”, the EC50 (zanolimumab [21]) was 3.49 nM and the EC50 (tabalumab [22]) was 0.0823 nM. For the same binder, the EC50 (3A6 [23]) was 1.52 nM.

B6: D011-7016.hIgG1 (antibody)
heavy: not shown
light: DIVMTQSPATLSVTPGDSVSLSCRANQSIDNNLHWYQQRSHESPRLLINYASQSISGIPSRFSGSGSGTDFTLSISSVETEDFGMYFCQQSYGWPYTFGGGTKLEIKRTVAAPSVFIFPPSDEQLKSGTASVVCLLNNFYPREAKVQWKVDNALQSGNSQESVTEQDSKDSTYSLSSTLTLSKADYEKHKVYACEVTHQGLSSPVTKSFNRGEC
With B6 the “EC50 of ADCC reporter luminescence (RLU), Jurkat Lucia NFAT-CD16 effector cells with tabalumab-expressing CHO target cells” value (tabalumab [24]) was 1.02 nM, the “EC50 of ADCP (% CFSE of CD14+ cells), M0 macrophages with CFSE-labelled OCI-Ly3 target cells” value [25] was 0.0615 nM and the “EC50 of ADCC reporter luminescence (RLU), Jurkat Lucia NFAT-CD16 effector cells with zanolimumab-expressing CHO target cells” value (zanolimumab [26]) was 1.09 nM.

B7: D011-6040 (antibody, human IgG1, kappa, V domains shown)
VH: EVQLQQSGAEFVRSGASVKLSCTASGFNIKDYYMHWVKQRPEQGLDWIGWIDPENGDADYDPKFQGKATMTADTSSNTAYLHLSSLTSEDAAVYYCNACHYYGYEDAMDYWGQGTSVTVSS
VL: DIQMTQSPSSLSASLGERVSLTCRASQEISGYLSWLQQKPDGTIKRLIYAASTLDSGVPKRFSGSRSGSDYSLTISSLESEDFADYYCLQYAGYPRTFGGGTRLEIKR
notes: also called [3]; D011-6040.IgG2a
B7 showed an EC50 [27] of 0.661 nM, an EC50 (zanolimumab [2]) of 0.0043 nM and an EC50 (Tabalumab mutant FR1 [28]) of 3.93 nM. The EC50 (tabalumab [5]) was 0.00587 nM, the EC50 (3A6 mutant FR1 [29]) was 4.8 nM and the EC50 (Zanolimumab mutant FR1 [30]) was 0.821 nM. For the same binder, the EC50 (3A6 [7]) was 0.00895 nM.
